Here are results for one molecule from patent US20080305111A1, “Anti-C35 antibodies for treating cancer” (VACCINEX, INC., priority 2006, published 2008).

Assay [1] deals with T1, C35 (Homo sapiens, UniProt Q9BRT3).
T1 sequence (Q9BRT3 1-115): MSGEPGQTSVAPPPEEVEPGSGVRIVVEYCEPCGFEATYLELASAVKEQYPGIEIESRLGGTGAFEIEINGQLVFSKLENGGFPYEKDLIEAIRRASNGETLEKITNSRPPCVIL
Kind of assay: Western blot, tumor specific binding of MAb 163. Also noted: endogenous in cells; host or cells: 21MT1-D human breast tumor cell line. In general terms: Immunoblotting shows a protein as a band on a membrane.

Assay [2] deals with C35-negative H16N2 cells. Kind of assay: Immunofluorescence staining (FMAT), C35-negative cells. The class given is cell-based, human. The conditions noted are these: MAb163 at 3, 1, 0.3 or 0.1 μg/ml.
Assay [3] concerns the target T2, recombinant human C35 (rhC35) (Homo sapiens, UniProt Q9BRT3).
T2 construct: made in house; host or cells: E. coli
T2 sequence (Q9BRT3 1-115): T1 sequence (Q9BRT3 1-115)
Kind of assay: Epitope mapping by Lys-C digestion of rhC35 and Western blot. The following applies: residues numbered from amino terminal methionine of native human C35. Type of assay: binding. From the text: To localize the epitope specificity of 1B3 and 1F2 antibodies, recombinant human C35 (rhC35) synthesized with a 6×His tag in E. coli was digested with Lys-C endoproteinase. This enzyme cuts after lysine (K) residues in the protein sequence. […] The full sequence of rhC35, including the amino terminal 6×His tag addition is shown. Amino acid positions are numbered relative to the amino terminal methionine (M) of the native human sequence. Note that digestion at the first and third lysine followed by negatively charged residues is inefficient and some longer combination fragments may be generated. Lys-C endoproteinase was added to purified rhC35 at a 50:1 weight ratio and incubated for 18 hours at 37° C. in 25 mM Tris, pH 8.0. The digest was ethanol precipitated and resolubilized in reducing Tricine sample buffer. […] Peptides were transferred to PVDF membranes and the blots depicted in FIG. 10 were either stained with Coomassie blue (lanes 1-3 of both left and right panels) to detect all peptides or processed with one of the following: 1 μg/ml of the murine 1F2 anti-C35 antibody followed by alkaline phosphatase conjugated goat anti-mouse antibody (lane 4 of left panel); 1 μg/ml of the 1B3 anti-C35 immunoglobulin variable regions linked to human constant regions (MAb11) followed by alkaline phosphatase conjugated goat anti-human antibody (lane 5 of left panel); or anti-6×His tag mouse antibody (Amersham) followed by alkaline phosphatase conjugated goat anti-mouse antibody (lane 4 and 5 of right panel). BCIP/NBT substrate was added and developed to detect the secondary reagents. Molecular weight markers are indicated in the flanking lanes of both panels.
In FIG. 10, the indicated band A migrates at the position of undigested rhC35. Note that band B stains with 1F2 but not MAb11 (1B3) anti-C35 antibody while band C stains with neither 1F2 nor MAb11 (1B3) antibody. Since bands B and C both do stain with anti-6×His tag antibody to the 6×His tag at the amino terminus of rhC35, it may be concluded that both fragments lack C-terminal peptide fragments. […]

The target in assay [4] is T1, C35. Kind of assay: Immunoprecipitation of C35 from 21MT1-D cell lysates. Type of assay: binding. Also noted: endogenous in cells; host or cells: 21MT1-D human breast tumor cell line. The conditions noted are these: detected with rabbit anti-C35 polyclonal sera; IgG negative control did not. The method, then:
The number “15” indicates the molecular weight marker at 15 kDalton. The number “163” indicates the mAb163 monoclonal antibody. “Neg IgG” indicates an IgG negative control antibody.
Briefly, 10 ml of MAb163 in CHO cell supernatant was buffer-exchanged into PBS and concentrated to 1 ml. Concentrated MAb 163 was added to protein A beads for greater than one hour. After washing, protein A/MAb163 was added to C35-positive 21MT1-D cell lysates for 2 hours. After washing the beads, the protein was eluted with reducing sample buffer at 100° C.
Immunoprecipitated samples were analyzed by Western blot using rabbit anti-C35 polyclonal sera. As shown in the left lane of FIG. 22, lysate from 100,000 21MT1-D cells was included on the Western blot as a control. The number “15” in FIG. 22 indicates a molecular weight marker at 15 kDalton.

The target in assay [5] is T3, rC35 (Homo sapiens, UniProt Q9BRT3).
T3 construct: made in house; host or cells: E. coli
T3 sequence (Q9BRT3 1-115): T1 sequence (Q9BRT3 1-115)
Kind of assay: Biacore affinity testing of MAb 163 (1:1 kinetic model). The class given is binding. The method, then:
To measure affinity using Biacore, a CM5 chip surface was prepared by immobilizing Goat Anti-Human IgG Fc through amine coupling. The monoclonal human antibody MAb 163 was then captured by flow over the chip containing the Goat Anti-Human IgG. The rC35 was then serial diluted into two separate series to cover a wide range of concentration points and binding efficiencies, and then the C35 was allowed to flow over the chip containing bound MAb 163. The binding was recorded in a series of sensograms. The binding was evaluated using BIAevaluation software, where the Ka and Kd were calculated by fitting the curves and correcting for Mass Transfer.

In assay [6] the test system is C35-positive 21MT1-D cells. Description: Immunofluorescence staining (FMAT), C35-positive cells. Type of assay: cell-based, human. The conditions noted are these: MAb163 at 3, 1, 0.3 or 0.1 μg/ml.

Entries after “also recorded” stand apart in the source; their conditions may differ.

B1: MAb 163: fully human C35-specific antibody; VH from clone H730 (SEQ ID NO:62), VL from clone L74 (SEQ ID NO:66) (antibody, V domains shown)
VH: EVQLVESGGGLVKPGGSLRLSCEVSGITFSNAWMSWVRQAPGKGLEWVGRIKSKTDGGTTDYAAPVKGRFTISRDDSKNTLYLQMNSLKTEDTAVYYCSIGYYYDSSFKYGMDVWGQGTTVTVSS
VL: DIQMTQSPATLSASVGDRVTITCRASQSISRWLAWYQQKPGQAPKVLIYKASTLQSGVPSRFSGSGSGTEFSLTINSLQPDDFATYYCQQYYSYLRTFGQGTKLEIK
modifications: VH of MAb163 (H730); VL of MAb163 (L74)
Take B1: the “binding in Western blot, tumor cell lysate” value in assay [1] (21MT1-D human breast tumor cell lysate, MAb163 4.4 ug/ml) was “binds native C35 monomer in tumor cell lysate”. In addition, the “binding in Western blot, normal cell line” value in assay [1] (H16N2 normal immortalized human breast cell line lysate) was “binding is absent in the normal cell line”. In assay [1] (rC35 purified from E. coli, 100 ng/lane), the “binding in Western blot, recombinant C35” value was “binds the rC35 monomer (16 kD), dimer (˜32 kD), and larger aggregates”. Besides, the immunofluorescence staining entry is “do not show any immunofluorescence staining” in assay [2] and “show dose-dependent immunofluorescence” in assay [6]. The epitope specificity entry in assay [3] is “recognizes an epitope within amino acid residues 48 to 87 of C35; also recorded: specific for an epitope within amino acid residues 48 to 87 of C35”. The “immunoprecipitation of C35” value in assay [4] is listed as “immunoprecipitated C35 protein”. The molecule further gave a KA in assay [5] (BIAevaluation, 1:1 kinetic model) of 2.96e+08 M⁻¹. In addition, the ka in assay [5] (MAb 163 captured on anti-human IgG Fc CM5 chip, rC35 in flow) worked out at 284000 M⁻¹ s⁻¹.
